We go through two proteins from PMC10590398, “Hfq C-terminal region forms a β-rich amyloid-like motif without perturbing the N-terminal Sm-like structure” (Communications Biology, 2023).

Series [1] concerns the molecule itself. Kind of series: X-ray fibre diffraction; Hfq11 filaments assembled in water, seen as bundles of approx. 20 nm fibers by TEM; powder diffraction at 270 K, Cu Kα, washed by centrifugation; reflections at 4.6 Å and 7.8–8 Å (cross-β).
Series [2] deals with the molecule itself. Briefly: ATR-FTIR; assembled Hfq CTR at 20 mg/mL in D2O, the amyloid state at the start of the lipid experiment.

B1: Hfq11, minimal 11-residue C-terminal assembling motif of E. coli Hfq (Hfq_(87-97)) (peptide)
peptide: SAQNTSAQQDS
notes: Hfq (host factor 1), E. coli, C-terminal region; Unlabelled synthetic peptide, studied as assembled filaments; also called Hfq 11-residues; 11-residue C-terminal Hfq peptide; source: synthetic peptide (Proteogenix), assembled in water at 4 °C at 20 mg/mL for >1 month
Turning to B1, in series [1], the binding result is listed as “binds”.

B2: Hfq 38-residue C-terminal region peptide (peptide)
peptide: SRPVSHHSNNAGGGTSSNYHHGSSAQNTSAQQDSEETE
notes: Hfq (host factor 1), E. coli, C-terminal region; The lipid experiment names its sample only 'assembled Hfq CTR'; also called Hfq 38-residues; Hfq CTR; source: synthetic peptide (Proteogenix), assembled at 4 °C at 20 mg/mL for >1 month (D2O for FTIR)
For the protein B2, in series [2], the binding result was “binds”.
